The source of these data is the DeepSol protein solubility set.

The series in a line: soluble on expression in E. coli; label from the status in PepcDB or PDB records.
Turning to “MSLSKYKPTWMIDAIYKITPAQLKKLGIKAVLTDLDNTLIAWNNPDGTEELKTWLLEMKNAGITVLVVSNNKDSRIKRVVEKFDLDYVARALKPTARGFKLAEKKLGLKPSEMLMVGDQIMTDIRGANAAGIRNVLVQPIVDTDGWNTRINRFFERKIMKYLSKKHPEMTWRGGLEEGHHHHHH”, the “soluble on expression in E. coli” value is given as “soluble”.
Regarding “MSLAEFSADLCLFDLDGTIVSTTVAAEKAWTKLCYEYGVDPSELFKHSHGARTQEVLRRFFPKLDDTDNKGVLALEKDIAHSYLDTVSLIPGAENLLLSLDVDTETQKKLPERKWAIVTSGSPYLAFSWFETILKNVGKPKVFITGFDVKNGKPDPEGYSRARDLLRQDLQLTGKQDLKYVVFEDAPVGIKAGKAMGAITVGITSSYDKSVLFDAGADYVVCDLTQVSVVKNNENGIVIQVNNPLTRAEGHHHHHH”, the “soluble on expression in E. coli” value was “not soluble”.
For “MGSDKIHHHHHHMPTTMTTNIKNNDFKDVVFNRQSVRQFDPTVKIDREELQTIIDETISAPSACNLQSWHFVVADSADGKAKAKSVLMPFNYPQIDSCSAMIFVLGDTQSHLVYRDVWNKACEEGRITPEKRDQIFKTFLPMYENASPEFLQADAMIDSSMAAMQLLLIARAHGYDANPIAGYAADKVATTFGLDAKRYVPVMAIALGKAASEPITTTRYAGTQVTEFI”, the “soluble on expression in E. coli” value was “not soluble”.
Under “MGSDKIHHHHHHMTENKLIIGTAPDSWGVWFADDPKQTPWERFLDEVAESGYKWIELGPYGYLPNNPARLAEELKQRDLKVTAGTVFTAFHRGLDEWETAWEPARKVAELTAAMGGEHIVVIPAMWRDDVTGEAVESGQLTEKAWSDLFAGHNRLGKTLLEDFGLKQQFHSHADSHVGAQEDIESLLAATDSKYLNLCLDTGHAEYCGASSLELIKNYPDRIGYLHLKQINPDILKKVNEENMTWAAANLAGVMTEPPNGLPDLRAVIEAVEALNRPIFGIVEQDMYPVAFDVPMPIAKRTRNYLLSCGSRTAVN” stands “not soluble”; under “MGHHHHHHSHRASRKICFVCKKKGAAINCQKDQCLRNFHLPCGQERGCLSQFFGEYKSFCDKHRPTQNIQHGHVGEESCILCCEDLSQQSVENIQSPCCSQAIYHRKCIQKYAHTSAKHFFKCPQCNNRKEFPQEMLRMGIHIPDR”, “not soluble”.
With “MSLTTPTMIAAVVEEANGPFVLRKLARPQPAPGQVLVQIEASGTNPLDAKIRAGEAPHAQQPLPAILGMDLAGTVVAVGPEVDSFRVGDAVFGLTGGVGGLQGTHAQFAAVDARLLASKPAALTMRQASVLPLVFITAWEGLVDRAQVQDGQTVLIQGGGGGVGHVAIQIALARGARVFATARGSDLEYVRDLGATPIDASREPEDYAAEHTAGQGFDLVYDTLGGPVLDASFSAVKRFGHVVSCLGWGTHKLAPLSFKQATYSGVFTLHTLLANEGLAHFGEMLREADALVQTGKLAPRLDPRTFSIAEIGSAYDAVLGRNDVPRQRGKIAITVEPQFNLHEQREGHHHHHH”, the “soluble on expression in E. coli” value is reported as “soluble”.
Under “MTRLLDATWEKELLAASARLSQAQEENFLDLVDAAEGRIDETIARVLLRTFSAKDDYGTQERVVSVLSTGADQVVIDAIVEEMPRLALEAPEWAQTLLGTEVEFRPDLTARALSQAPTICRIAAENILKNEDFQSQYPNAALVLGQLDA” stands “not soluble”; under “MPHFTKRPAQPQAALAEAAGLRWLAEASSAVAQVVSADAEQITTVGVETQLPTPDAAFKAGEELARIHLAGAPAFGCPPAGWAGLNYIGTQGQACLSTPTWGVFYSQQRVLPFARRARRRNHLTEHALWVVEAACDLISELPDDVPPARIHGDLWFGNLLFGTDGPVFIDPAAHGGHPETDLAMLDVFGAPYLDEIREGYLSINPLPDGWRERTPMHQLHPLAVHAASHGPSYGVELLHAAKATLKLLDLEHHHHHH”, “not soluble”.
Under “MKNNADYIEMKVPAQPEYVGIIRLTLSGVASRMGYTYDEIEDLKIAVSEACTNAVQHAYKEDKNGEVSIRFGVFEDRLEVIVADEGDSFDFDQKQQDLGPYTPSHTVDQLSEGGLGLYLMETLMDEVRVQNHSGVTVAMTKYLNGERVDHDTTIKNYETN” stands “soluble”.
In the case of “MSLSNTVHVFFGNKDSKVQVFKDKGTNQFANQVNLFMGDYLDTYFNRDKDTDLDKLKKYYGSGIDIKGQESRDIDMKLEHVSLVEIKSSVAVYDINYQIKDGDNWKSVLARINVPYKEKDGRYYVSDLPYYTDQSSYVADTVKGNSKLPTQSEVEGLSNKKLSGLKDYIVAFFKAYTSGDNSQMAPFSGAVSPLKSYEFEELDYAYFIKHKHSIIAVVQVTFKNEFGVKHQENFTLEVTESKQTSSYYVKSMKHGIDEDCRKEMKMDEGHHHHHH”, the “soluble on expression in E. coli” value is recorded as “soluble”.
Under “MNILQEPIDFLKKEELKNIDLSQMSKKERYKIWKRIPKCELHCHLDLCFSADFFVSCIRKYNLQPNLSDEEVLDYYLFAKGGKSLGEFVEKAIKVADIFHDYEVIEDLAKHAVFNKYKEGVVLMEFRYSPTFVAFKYNLDIELIHQAIVKGIKEVVELLDHKIHVALMCIGDTGHEAANIKASADFCLKHKADFVGFDHGGHEVDLKEYKEIFDYVRESGVPLSVHAGEDVTLPNLNTLYSAIQVLKVERIGHGIRVAESQELIDMVKEKNILLEVCPISNVLLKNAKSMDTHPIRQLYDAGVKVSVNSDDPGMFLTNINDDYEELYTHLNFTLEDFMKMNEWALEKSFMDSNIKDKIKNLYFKGEFEAYV” stands “soluble”; under “MGNNVVVLGTQWGDEGKGKIVDLLTERAKYVVRYQGGHNAGHTLVINGEKTVLHLIPSGILRENVTSIIGNGVVLSPAALMKEMKELEDRGIPVRERLLLSEACPLILDYHVALDNAREKARGAKAIGTTGRGIGPAYEDKVARRGLRVGDLFDKETFAEKLKEVMEYHNFQLVNYYKAEAVDYQKVLDDTMAVADILTSMVVDVSDLLDQARQRGDFVMFEGAQGTLLDIDHGTYPYVTSSNTTAGGVATGSGLGPRYVDYVLGILKAYSTRVGAGPFPTELFDETGEFLCKQGNEFGATTGRRRRTGWLDTVAVRRAVQLNSLSGFCLTKLDVLDGLKEVKLCVAYRMPDGREVTTTPLAADDWKGVEPIYETMPGWSESTFGVKDRSGLPQAALNYIKRIEELTGVPIDIISTGPDRTETMILRDPFDA”, “soluble”.
Under “MKIYIEGYGCTLNTADTQIIKNSVNEFEDFELTDNVDDSDIIVINTCIVRQETEHRMISRIEYFKSLDKKVVVAGCMAKALSKKIENLADVLIMPREAQHSGNILKDKLLKDFSEKNNESTQNLNFEDKLNEKIKKVSSQGLITALPICEGCLGSCTYCIVKRARGNLASYDRDLIVKKAEELVKSGTKCLLVTAQDTACYGLDNNDSLPNLINDISEIPEKFAMRIGMMHAKFAEPILDELIESFKSEKVVKFLHLPIQSGDDQVLKDMNRNYTVDEYISVLNEFKSKIKNLNFTTDVIVGFPTETEEAFENTLEIVKKIKPDFTHAAKYSQRKYTKAAILKQVDTKIRKERSEILNELRRELSYENNKRHIGETFEILVTKDNMGVTDNCKNVIFEEPAKIGEFKRVKITGAKTFGLSGKLINLEHHHHHH” stands “soluble”.
Under “MGTGGITSNAHVVSPTWHHKHVPPMDDDSVLQRDIGELLSRWGGLQMAVKNQWGGHDSLKKSQELAHNLFHLISQSNGSIFFLLL” stands “not soluble”.
For “MGSDKIHHHHHHMSDYLRGKRVVDPVLTSVARGYKNAAFVGESIFPIVQVEKEGIVVPLFGKGAFVEYDTERAVGAESNVLLREKSSSMDLVLNEHDLAAPVDYREQAESLFNEEAKAIRRATNGVNLKRELYAARLAQDPKVYLAASKKTLAAAERWANGKGEPVTVIEAGIEAVRNATGLRPNLLTMGASVMSVLRYHPAIQAQIGANERKRITAEILQDIFQINKVLIGEPVSSPDGKKAPIDVWADNLMLHYVSPPQPGTESADENEPSFGYTFRRKGMPVSDKYPGVGGKVSYARFTDIYKVAVVGGDAGYLITNILK”, the “soluble on expression in E. coli” value is reported as “not soluble”.
